{"source": "patent US20200024322A1", "about": "(Eli Lilly, published 2020)", "binders": {"B1": {"name": "Example 133 (peptide)", "peptide": "[Desaminotyrosyl][Aib]EGT[αMeF]TSDYSI[Aib]LDEK([AEEA-AEEA-γGlu-C20 diacid])AQ[Aib]AFIEYLIEGGPSSGAPPPS-NH2", "SMILES": "CC[C@H](C)[C@H](NC(=O)[C@H](CC(C)C)NC(=O)[C@H](Cc1ccc(O)cc1)NC(=O)[C@H](CCC(=O)O)NC(=O)[C@@H](NC(=O)[C@H](Cc1ccccc1)NC(=O)[C@H](C)NC(=O)C(C)(C)NC(=O)[C@H](CCC(N)=O)NC(=O)[C@H](C)NC(=O)[C@H](CCCCNC(=O)COCCOCCNC(=O)COCCOCCNC(=O)CC[C@H](NC(=O)CCCCCCCCCCCCCCCCCCC(=O)O)C(=O)O)NC(=O)[C@H](CCC(=O)O)NC(=O)[C@H](CC(=O)O)NC(=O)[C@H](CC(C)C)NC(=O)C(C)(C)NC(=O)[C@@H](NC(=O)[C@H](CO)NC(=O)[C@H](Cc1ccc(O)cc1)NC(=O)[C@H](CC(=O)O)NC(=O)[C@H](CO)NC(=O)[C@@H](NC(=O)[C@](C)(Cc1ccccc1)NC(=O)[C@@H](NC(=O)CNC(=O)[C@H](CCC(=O)O)NC(=O)C(C)(C)NC(=O)CCc1ccc(O)cc1)[C@@H](C)O)[C@@H](C)O)[C@@H](C)CC)[C@@H](C)CC)C(=O)N[C@@H](CCC(=O)O)C(=O)NCC(=O)NCC(=O)N1CCC[C@H]1C(=O)N[C@@H](CO)C(=O)N[C@@H](CO)C(=O)NCC(=O)N[C@@H](C)C(=O)N1CCC[C@H]1C(=O)N1CCC[C@H]1C(=O)N1CCC[C@H]1C(=O)N[C@@H](CO)C(N)=O"}, "B2": {"name": "Example 122 (peptide)", "peptide": "Y[Aib]EGT[αMeF]TSDYSI[αMeL]LDEK([AEEA-AEEA-γGlu-C20 diacid])AQQAFIEYLIE[Aib]GPSSGAPPPS-NH2", "modifications": "N-terminus assumed", "SMILES": "CC[C@H](C)[C@H](NC(=O)[C@H](Cc1ccccc1)NC(=O)[C@H](C)NC(=O)[C@H](CCC(N)=O)NC(=O)[C@H](CCC(N)=O)NC(=O)[C@H](C)NC(=O)[C@H](CCCCNC(=O)COCCOCCNC(=O)COCCOCCNC(=O)CC[C@H](NC(=O)CCCCCCCCCCCCCCCCCCC(=O)O)C(=O)O)NC(=O)[C@H](CCC(=O)O)NC(=O)[C@H](CC(=O)O)NC(=O)[C@H](CC(C)C)NC(=O)[C@](C)(CC(C)C)NC(=O)[C@@H](NC(=O)[C@H](CO)NC(=O)[C@H](Cc1ccc(O)cc1)NC(=O)[C@H](CC(=O)O)NC(=O)[C@H](CO)NC(=O)[C@@H](NC(=O)[C@](C)(Cc1ccccc1)NC(=O)[C@@H](NC(=O)CNC(=O)[C@H](CCC(=O)O)NC(=O)C(C)(C)NC(=O)[C@@H](N)Cc1ccc(O)cc1)[C@@H](C)O)[C@@H](C)O)[C@@H](C)CC)C(=O)N[C@@H](CCC(=O)O)C(=O)N[C@@H](Cc1ccc(O)cc1)C(=O)N[C@@H](CC(C)C)C(=O)N[C@H](C(=O)N[C@@H](CCC(=O)O)C(=O)NC(C)(C)C(=O)NCC(=O)N1CCC[C@H]1C(=O)N[C@@H](CO)C(=O)N[C@@H](CO)C(=O)NCC(=O)N[C@@H](C)C(=O)N1CCC[C@H]1C(=O)N1CCC[C@H]1C(=O)N1CCC[C@H]1C(=O)N[C@@H](CO)C(N)=O)[C@@H](C)CC"}, "B3": {"name": "Example 10 (peptide)", "peptide": "Y[Aib]EGTFTSDYSILLDSIAQ[Aib]AFIK([AEEA-AEEA-γGlu-C20 diacid])YLLA[Aib]GPSSGAPPPS-NH2", "modifications": "N-terminus assumed", "SMILES": "CC[C@H](C)[C@H](NC(=O)[C@H](CO)NC(=O)[C@H](CC(=O)O)NC(=O)[C@H](CC(C)C)NC(=O)[C@H](CC(C)C)NC(=O)[C@@H](NC(=O)[C@H](CO)NC(=O)[C@H](Cc1ccc(O)cc1)NC(=O)[C@H](CC(=O)O)NC(=O)[C@H](CO)NC(=O)[C@@H](NC(=O)[C@H](Cc1ccccc1)NC(=O)[C@@H](NC(=O)CNC(=O)[C@H](CCC(=O)O)NC(=O)C(C)(C)NC(=O)[C@@H](N)Cc1ccc(O)cc1)[C@@H](C)O)[C@@H](C)O)[C@@H](C)CC)C(=O)N[C@@H](C)C(=O)N[C@@H](CCC(N)=O)C(=O)NC(C)(C)C(=O)N[C@@H](C)C(=O)N[C@@H](Cc1ccccc1)C(=O)N[C@H](C(=O)N[C@@H](CCCCNC(=O)COCCOCCNC(=O)COCCOCCNC(=O)CC[C@H](NC(=O)CCCCCCCCCCCCCCCCCCC(=O)O)C(=O)O)C(=O)N[C@@H](Cc1ccc(O)cc1)C(=O)N[C@@H](CC(C)C)C(=O)N[C@@H](CC(C)C)C(=O)N[C@@H](C)C(=O)NC(C)(C)C(=O)NCC(=O)N1CCC[C@H]1C(=O)N[C@@H](CO)C(=O)N[C@@H](CO)C(=O)NCC(=O)N[C@@H](C)C(=O)N1CCC[C@H]1C(=O)N1CCC[C@H]1C(=O)N1CCC[C@H]1C(=O)N[C@@H](CO)C(N)=O)[C@@H](C)CC"}, "B4": {"name": "Example 11 (peptide)", "peptide": "Y[Aib]EGTFTSDYSILLDSIAQ[Aib]AFIEYLLK([AEEA-AEEA-γGlu-C20 diacid])[Aib]GPSSGAPPPS-NH2", "modifications": "N-terminus assumed", "SMILES": "CC[C@H](C)[C@H](NC(=O)[C@H](CO)NC(=O)[C@H](CC(=O)O)NC(=O)[C@H](CC(C)C)NC(=O)[C@H](CC(C)C)NC(=O)[C@@H](NC(=O)[C@H](CO)NC(=O)[C@H](Cc1ccc(O)cc1)NC(=O)[C@H](CC(=O)O)NC(=O)[C@H](CO)NC(=O)[C@@H](NC(=O)[C@H](Cc1ccccc1)NC(=O)[C@@H](NC(=O)CNC(=O)[C@H](CCC(=O)O)NC(=O)C(C)(C)NC(=O)[C@@H](N)Cc1ccc(O)cc1)[C@@H](C)O)[C@@H](C)O)[C@@H](C)CC)C(=O)N[C@@H](C)C(=O)N[C@@H](CCC(N)=O)C(=O)NC(C)(C)C(=O)N[C@@H](C)C(=O)N[C@@H](Cc1ccccc1)C(=O)N[C@H](C(=O)N[C@@H](CCC(=O)O)C(=O)N[C@@H](Cc1ccc(O)cc1)C(=O)N[C@@H](CC(C)C)C(=O)N[C@@H](CC(C)C)C(=O)N[C@@H](CCCCNC(=O)COCCOCCNC(=O)COCCOCCNC(=O)CC[C@H](NC(=O)CCCCCCCCCCCCCCCCCCC(=O)O)C(=O)O)C(=O)NC(C)(C)C(=O)NCC(=O)N1CCC[C@H]1C(=O)N[C@@H](CO)C(=O)N[C@@H](CO)C(=O)NCC(=O)N[C@@H](C)C(=O)N1CCC[C@H]1C(=O)N1CCC[C@H]1C(=O)N1CCC[C@H]1C(=O)N[C@@H](CO)C(N)=O)[C@@H](C)CC"}, "B5": {"name": "Example 123 (peptide)", "peptide": "YXEGTXTSDYSIXLDKKAQXEFIEYLIEGGPSSG", "modifications": "Aib2; αMeF6; αMeL13; K17((2-[2-(2-Amino-ethoxy)-ethoxy]-acetyl)2-(γ-Glu)-CO-(CH2)18-CO2H); Aib20; C-terminal NH2"}, "B6": {"name": "Example 124 (peptide)", "peptide": "B5 peptide with K16E", "modifications": "Aib2; αMeF6; αMeL13; K17((2-[2-(2-Amino-ethoxy)-ethoxy]-acetyl)2-(γ-Glu)-CO-(CH2)18-CO2H); Aib20; C-terminal NH2"}, "B7": {"name": "Example 137 (peptide)", "peptide": "YXEGTXTSDYSIXLDKKAQXXFIEYLIEGGPSSGAPPPS", "modifications": "Aib2; αMeF6; αMeL13; K17((2-[2-(2-Amino-ethoxy)-ethoxy]-acetyl)2-(γ-Glu)-CO-(CH2)18-CO2H); Aib20; Aad21; C-terminal NH2"}, "B8": {"name": "Example 158 (peptide)", "peptide": "B7 peptide with Y10X, K16E, X21E", "modifications": "Aib2; αMeF(2F)6; 4Pal10; αMeL13; K17((2-[2-(2-Amino-ethoxy)-ethoxy]-acetyl)2-(γ-Glu)-CO-(CH2)18-CO2H); Aib20; C-terminal NH2"}, "B9": {"name": "Example 182 (peptide)", "peptide": "B7 peptide with Y10X, K16E, X21E, E24X", "modifications": "not printed (the compound name of this Example is missing from the table of Examples 6-287)"}}, "note": "Substitutions are numbered along the chain they refer to. Numbered stars: 1 amine (or outer) side, 2 acyl side, 3 side chain; on linkers, the order of the positions; unused ones are H or OH. Square brackets hold non-standard residues; d marks the D form. Side chains are listed from the residue outwards. Ends that are not written are not given here. * marks the point of attachment. C20 diacid = O=C(O)CCCCCCCCCCCCCCCCCCC(=O)*; γGlu = O=C(O)[C@H](CCC(=O)[*:2])N[*:1]; Desaminotyrosyl = O=C(CCc1ccc(O)cc1)*; αMeF = C[C@](N)(Cc1ccccc1)C(=O)O; αMeL = CC(C)C[C@](C)(N)C(=O)O; AEEA = NCCOCCOCC(=O)O; Aib = CC(C)(N)C(=O)O", "data": [{"target": "T1, human GLP-1 receptor (human, UniProt P43220 24-463)", "T1 construct": "whole, on cells; Used as crude membranes of stably transfected HEK293 cells; also called hGLP1R; hGLP-1R", "assay": "SPA, [125I]-GLP-1 displacement, hGLP-1R membranes", "units": {"Ki": "nM"}, "values": [{"binder": "B1", "Ki": 11.4}, {"binder": "B2", "Ki": 3.36}, {"binder": "B3", "Ki": 9.33}, {"binder": "B4", "Ki": 15.7}, {"binder": "B5", "Ki": 1.31}, {"binder": "B6", "Ki": 4.87}, {"binder": "B7", "Ki": 1.24}, {"binder": "B8", "Ki": 11.8}, {"binder": "B9", "Ki": 4.64}]}, {"target": "T2, human GIP receptor (human, UniProt P48546 22-466)", "T2 construct": "whole, on cells; Used as crude membranes of stably transfected CHO cells; also called hGIPR", "T2 sequence (looked up)": "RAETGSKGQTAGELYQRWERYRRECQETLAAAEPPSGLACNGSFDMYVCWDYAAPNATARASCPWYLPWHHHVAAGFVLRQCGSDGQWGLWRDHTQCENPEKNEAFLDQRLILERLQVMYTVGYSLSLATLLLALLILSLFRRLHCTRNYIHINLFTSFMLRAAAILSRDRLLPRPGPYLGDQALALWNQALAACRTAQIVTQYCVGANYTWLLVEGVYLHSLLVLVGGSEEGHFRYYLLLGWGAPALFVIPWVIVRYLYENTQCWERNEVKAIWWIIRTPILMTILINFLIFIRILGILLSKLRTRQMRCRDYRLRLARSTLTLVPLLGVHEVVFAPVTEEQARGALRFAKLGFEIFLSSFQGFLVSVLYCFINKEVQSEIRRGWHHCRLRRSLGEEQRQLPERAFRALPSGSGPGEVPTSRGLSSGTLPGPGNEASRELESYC", "assay": "SPA, [125I]-GIP displacement, hGIPR membranes", "units": {"Ki": "nM"}, "values": [{"binder": "B1", "Ki": 0.157}, {"binder": "B2", "Ki": 0.19}, {"binder": "B3", "Ki": 0.109}, {"binder": "B4", "Ki": 0.226}, {"binder": "B5", "Ki": 0.0469}, {"binder": "B6", "Ki": 0.0424}, {"binder": "B7", "Ki": 0.0373}, {"binder": "B8", "Ki": 0.114}, {"binder": "B9", "Ki": 0.0669}]}, {"target": "T3, human glucagon receptor (human, UniProt P47871 26-477)", "T3 construct": "whole, on cells; Used as crude membranes of stably transfected HEK293 cells; also called hGcgR; hGLcgR", "T3 sequence (P47871 26-477)": "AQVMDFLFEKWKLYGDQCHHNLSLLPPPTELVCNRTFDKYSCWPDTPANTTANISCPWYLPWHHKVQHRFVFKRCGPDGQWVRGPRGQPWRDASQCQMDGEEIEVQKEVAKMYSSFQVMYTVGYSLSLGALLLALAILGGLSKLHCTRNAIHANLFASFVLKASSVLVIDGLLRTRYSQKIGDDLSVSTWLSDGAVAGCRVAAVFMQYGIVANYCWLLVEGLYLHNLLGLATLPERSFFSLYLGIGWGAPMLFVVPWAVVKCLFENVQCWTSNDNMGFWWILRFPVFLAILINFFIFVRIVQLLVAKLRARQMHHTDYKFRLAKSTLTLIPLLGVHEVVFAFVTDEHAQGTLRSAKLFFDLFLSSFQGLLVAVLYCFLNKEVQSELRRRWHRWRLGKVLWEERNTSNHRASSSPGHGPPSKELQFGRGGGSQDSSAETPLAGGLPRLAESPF", "assay": "SPA, [125I]-Gcg displacement, hGcgR membranes", "units": {"Ki": "nM"}, "values": [{"binder": "B1", "Ki": 216}, {"binder": "B2", "Ki": 43.3}, {"binder": "B3", "Ki": 226}, {"binder": "B4", "Ki": 174}, {"binder": "B5", "Ki": 80.1}, {"binder": "B6", "Ki": 41.5}, {"binder": "B7", "Ki": 98.1}, {"binder": "B8", "Ki": 285}, {"binder": "B9", "Ki": 565}]}]}
